We go through one molecule from PMC10190621 (Advanced Science, 2023).

The experiment addresses T1, His-tagged KEAP1 (C-terminal amino acids 312-624, containing the Kelch domain) (human, UniProt Q14145 312-624).
T1 construct: plasmid by Tsingke Biotechnology; also called His-KEAP1; Kelch domain of KEAP1; source: E. coli BL21 (DE3), purified (Ni-NTA column, gel filtration)
As to the kind of experiment: pull-down; His pulldown, competition: 10 µg His-KEAP1 on His immunomagnetic beads, mixed with NRF2 and 5 or 10 µg DDRGK1 protein at 4 °C overnight, washed three times, immunoblot. The note with it: both partners purified.

T1 sequence (Q14145 312-624): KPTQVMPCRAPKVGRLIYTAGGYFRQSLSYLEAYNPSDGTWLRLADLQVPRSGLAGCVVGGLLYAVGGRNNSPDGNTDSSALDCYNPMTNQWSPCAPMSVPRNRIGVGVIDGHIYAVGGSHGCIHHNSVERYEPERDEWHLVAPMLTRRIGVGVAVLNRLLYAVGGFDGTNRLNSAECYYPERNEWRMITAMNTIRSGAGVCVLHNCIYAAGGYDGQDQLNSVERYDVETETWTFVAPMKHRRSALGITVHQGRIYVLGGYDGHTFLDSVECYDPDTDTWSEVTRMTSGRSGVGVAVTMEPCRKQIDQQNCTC

B1: GST-tagged NRF2 (N-terminal amino acids 1-84, containing domains interacting with KEAP1) (domain or fragment, human, UniProt Q16236 1-84, looked up)
chain: MMDLELPPPGLPSQQDMDLIDILWRQDIDLGVSREVFDFSQRRKEYELEKQKKLEKERQEQLQKEQEKAFFAQLQLDEETGEFL
notes: N-terminal domain (residues 1-84) of human NRF2; plasmid by Tsingke Biotechnology; also called GST-NRF2; NRF2 protein; source: E. coli BL21 (DE3), purified (GSH column, gel filtration)
Consider B1, for which the binding result is reported as “binds”.
